From patent publication EP4674869A1 (Immuneoncia Therapeutics, Inc., dated 2026)

Key:
CD47 [1] = target: T1, CD47 (UniProt Q08722 19-323, limits assumed); assay: binding to Raji cancer cells; method not stated
T1 construct: whole, on cells; also called CD47 on cancer cells (MDA-MB-231, Raji)

CD47 [2] = target: T1, CD47; assay: binding to MDA-MB-231 cancer cells; method not stated

T1 sequence (Q08722 19-323 limits assumed): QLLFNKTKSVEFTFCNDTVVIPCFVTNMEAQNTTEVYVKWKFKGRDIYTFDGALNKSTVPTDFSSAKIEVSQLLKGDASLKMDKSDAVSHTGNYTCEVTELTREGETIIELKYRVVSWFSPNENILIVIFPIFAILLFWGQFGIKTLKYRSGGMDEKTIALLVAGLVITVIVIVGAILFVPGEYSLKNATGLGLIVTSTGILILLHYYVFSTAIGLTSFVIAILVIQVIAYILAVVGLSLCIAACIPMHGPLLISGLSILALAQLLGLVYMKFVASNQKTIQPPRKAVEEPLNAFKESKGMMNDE

EC50 (CD47 [1]): 4.77 µg/mL
EC50 (CD47 [2]): 5.73 µg/mL
B1: IMC-002 (antibody, human IgG4 S228P, lambda, V domains shown)
VH: QVQLVQSGAEVKKPGASVKVSCKASGYTFTSYYMHWVRQAPGQGLEWMGIINPSGGSTSYAQKFQGRVTMTRDTSTSTVYMELSSLRSEDTAVYYCARSTLWVSEFDYWGQGTLVTVSS
VL: QSALTQPASVSGSPGQSISISCTGTSSDVGGHNYVSWYQQHPGKAPKLMIYDVRNRPSGVSNRFSGSKSGSTASLTISGLQTEDEADYYCNSYTGSRTYVFGSGTKLTVLG
notes: Fully human IgG4 kappa antibody with an S228P hinge mutation; also called anti-CD47 antibody; C47B10-H3-D4
